# Laboratory results: PMC8155012, “Architecture of the Sema3A/PlexinA4/Neuropilin tripartite complex” (Nature Communications, 2021)
# T1: FLAG-tagged PlexinA4 extracellular region (mouse, UniProt Q80UG2 33-1226)
# T1 construct: mouse PlexinA4 residues 33–1226, extracellular region; FLAG inserted immediately after the signal peptide; also called PlexinA4-WT; source: Expi293F, purified from medium (Ni-NTA, Superose 6); not shown: FLAG, N-terminal, kept
# T1 sequence (looked up): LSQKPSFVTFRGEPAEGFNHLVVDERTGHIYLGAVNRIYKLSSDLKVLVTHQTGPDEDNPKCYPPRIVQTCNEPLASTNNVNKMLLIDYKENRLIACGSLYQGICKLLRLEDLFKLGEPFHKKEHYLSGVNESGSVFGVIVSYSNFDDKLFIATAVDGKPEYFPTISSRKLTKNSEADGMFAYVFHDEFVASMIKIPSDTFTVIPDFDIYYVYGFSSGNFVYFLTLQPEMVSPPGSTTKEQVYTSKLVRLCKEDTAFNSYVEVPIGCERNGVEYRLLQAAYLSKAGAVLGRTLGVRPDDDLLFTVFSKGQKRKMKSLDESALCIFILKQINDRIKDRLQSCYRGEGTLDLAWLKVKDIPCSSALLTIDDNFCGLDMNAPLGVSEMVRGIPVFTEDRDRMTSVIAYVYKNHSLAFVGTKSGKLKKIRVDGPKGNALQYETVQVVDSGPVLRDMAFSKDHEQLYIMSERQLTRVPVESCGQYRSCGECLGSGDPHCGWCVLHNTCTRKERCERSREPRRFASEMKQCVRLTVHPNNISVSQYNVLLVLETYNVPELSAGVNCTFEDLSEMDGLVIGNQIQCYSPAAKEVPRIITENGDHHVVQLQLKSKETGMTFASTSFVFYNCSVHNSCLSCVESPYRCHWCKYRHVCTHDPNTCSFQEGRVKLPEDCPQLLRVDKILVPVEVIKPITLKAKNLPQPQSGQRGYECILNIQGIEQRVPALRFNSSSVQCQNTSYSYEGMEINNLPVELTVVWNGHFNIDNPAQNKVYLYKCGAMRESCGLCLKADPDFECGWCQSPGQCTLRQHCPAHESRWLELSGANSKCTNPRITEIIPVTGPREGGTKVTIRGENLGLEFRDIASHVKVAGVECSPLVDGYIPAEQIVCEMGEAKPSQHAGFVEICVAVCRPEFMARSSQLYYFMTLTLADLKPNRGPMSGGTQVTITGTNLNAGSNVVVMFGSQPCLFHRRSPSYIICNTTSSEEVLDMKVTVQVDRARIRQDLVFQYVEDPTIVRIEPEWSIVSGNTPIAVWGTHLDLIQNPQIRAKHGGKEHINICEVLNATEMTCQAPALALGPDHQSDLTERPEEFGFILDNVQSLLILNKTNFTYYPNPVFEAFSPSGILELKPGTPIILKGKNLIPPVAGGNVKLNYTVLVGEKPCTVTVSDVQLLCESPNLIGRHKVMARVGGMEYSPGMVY
# Target: T1, FLAG-tagged PlexinA4 extracellular …
# Experiment: pull-down; FLAG-tagged PlexinA4 (20 µg) on anti-FLAG antibody resin; Nrp1 and Sema3A, 30 µg each, added together; 20 mM HEPES (pH 7.5), 150 mM NaCl, 1 mM CaCl2, 4 °C, 1 h; SDS-PAGE, Coomassie blue
# Conditions: both partners purified
row,binding result,Binder
1,binds,"Nrp1-a1a2b1b2 S251E (receptor, mouse, UniProt P97333 22-588, looked up, mouse Neuropilin 1 residues 22–588 (a1a2b1b2) with S251E; also called Nrp1-S251E; source: Expi293F, purified from medium (Ni-NTA, Superose 6)) FRSDKCGGTIKIENPGYLTSPGYPHSYHPSEKCEWLIQAPEPYQRIMINFNPHFDLEDRDCKYDYVEVIDGENEGGRLWGKFCGKIAPSPVVSSGPFLFIKFVSDYETHGAGFSIRYEIFKRGPECSQNYTAPTGVIKSPGFPEKYPNSLECTYIIFAPKMSEIILEFESFDLEQDSNPPGGMFCRYDRLEIWDGFPEVGPHIGRYCGQKTPGRIRSSSGVLSMVFYTDEAIAKEGFSANYSVLQSSISEDFKCMEALGMESGEIHSDQITASSQYGTNWSVERSRLNYPENGWTPGEDSYKEWIQVDLGLLRFVTAVGTQGAISKETKKKYYVKTYRVDISSNGEDWISLKEGNKAIIFQGNTNPTDVVLGVFSKPLITRFVRIKPVSWETGISMRFEVYGCKITDYPCSGMLGMVSGLISDSQITASNQADRNWMPENIRLVTSRTGWALPPSPHPYTNEWLQVDLGDEKIVRGVIIQGGKHRENKVFMRKFKIAYSNNGSDWKTIMDDSKRKAKSFEGNNNYDTPELRTFSPLSTRFIRIYPERATHSGLGLRMELLGCEVEAP"
2,binds,"Nrp1-a1a2b1b2 H74A (receptor, mouse, UniProt P97333 22-588, looked up, mouse Neuropilin 1 residues 22–588 (a1a2b1b2) with H74A; also called H74A mutation of Nrp1; source: Expi293F, purified from medium (Ni-NTA, Superose 6)) FRSDKCGGTIKIENPGYLTSPGYPHSYHPSEKCEWLIQAPEPYQRIMINFNPAFDLEDRDCKYDYVEVIDGENEGGRLWGKFCGKIAPSPVVSSGPFLFIKFVSDYETHGAGFSIRYEIFKRGPECSQNYTAPTGVIKSPGFPEKYPNSLECTYIIFAPKMSEIILEFESFDLEQDSNPPGGMFCRYDRLEIWDGFPEVGPHIGRYCGQKTPGRIRSSSGVLSMVFYTDSAIAKEGFSANYSVLQSSISEDFKCMEALGMESGEIHSDQITASSQYGTNWSVERSRLNYPENGWTPGEDSYKEWIQVDLGLLRFVTAVGTQGAISKETKKKYYVKTYRVDISSNGEDWISLKEGNKAIIFQGNTNPTDVVLGVFSKPLITRFVRIKPVSWETGISMRFEVYGCKITDYPCSGMLGMVSGLISDSQITASNQADRNWMPENIRLVTSRTGWALPPSPHPYTNEWLQVDLGDEKIVRGVIIQGGKHRENKVFMRKFKIAYSNNGSDWKTIMDDSKRKAKSFEGNNNYDTPELRTFSPLSTRFIRIYPERATHSGLGLRMELLGCEVEAP"
3,binds,"Nrp1-a1a2b1b2 E128R (receptor, mouse, UniProt P97333 22-588, looked up, mouse Neuropilin 1 residues 22–588 (a1a2b1b2) with E128R; also called Nrp1-E128R; source: Expi293F, purified from medium (Ni-NTA, Superose 6)) FRSDKCGGTIKIENPGYLTSPGYPHSYHPSEKCEWLIQAPEPYQRIMINFNPHFDLEDRDCKYDYVEVIDGENEGGRLWGKFCGKIAPSPVVSSGPFLFIKFVSDYRTHGAGFSIRYEIFKRGPECSQNYTAPTGVIKSPGFPEKYPNSLECTYIIFAPKMSEIILEFESFDLEQDSNPPGGMFCRYDRLEIWDGFPEVGPHIGRYCGQKTPGRIRSSSGVLSMVFYTDSAIAKEGFSANYSVLQSSISEDFKCMEALGMESGEIHSDQITASSQYGTNWSVERSRLNYPENGWTPGEDSYKEWIQVDLGLLRFVTAVGTQGAISKETKKKYYVKTYRVDISSNGEDWISLKEGNKAIIFQGNTNPTDVVLGVFSKPLITRFVRIKPVSWETGISMRFEVYGCKITDYPCSGMLGMVSGLISDSQITASNQADRNWMPENIRLVTSRTGWALPPSPHPYTNEWLQVDLGDEKIVRGVIIQGGKHRENKVFMRKFKIAYSNNGSDWKTIMDDSKRKAKSFEGNNNYDTPELRTFSPLSTRFIRIYPERATHSGLGLRMELLGCEVEAP"

# The next lines start with the binder.
row,Binder,binding result
1,"Sema3A (21–770) F386A (ligand, mouse, UniProt O08665 21-770, looked up, mouse Sema3A residues 21–770 with F386A; internal furin sites mutated; without A106K; also called F386A mutation of Sema3A; source: Expi293F, purified from medium (Ni-NTA, Superose 6)) NYANGKNNVPRLKLSYKEMLESNNVITFNGLANSSSYHTFLLDEERSRLYVGAKDHIFSFNLVNIKDFQKIVWPVSYTRRDECKWAGKDILKECANFIKVLEAYNQTHLYACGTGAFHPICTYIEVGHHPEDNIFKLQDSHFENGRGKSPYDPKLLTASLLIDGELYSGTAADFMGRDFAIFRTLGHHHPIRTEQHDSRWLNDPRFISAHLIPESDNPEDDKVYFFFRENAIDGEHSGKATHARIGQICKNDFGGHRSLVNKWTTFLKARLICSVPGPNGIDTHFDELQDVFLMNSKDPKNPIVYGVFTTSSNIFKGSAVCMYSMSDVRRVFLGPYAHRDGPNYQWVPYQGRVPYPRPGTCPSKTAGGFDSTKDLPDDVITFARSHPAMYNPVFPINNRPIMIKTDVNYQFTQIVVDRVDAEDGQYDVMFIGTDVGTVLKVVSVPKETWHDLEEILLEEMTVFREPTTISAMELSTKQQQLYIGSTAGVAQLPLHRCDIYGKACAECCLARDPYCAWDGSSCSRYFPTAKARTRAQDIRNGDPLTHCSDLQHHDNHHGPSLEERIIYGVENSSTFLECSPKSQRALVYWQFQRRNEDRKEEIRMGDHIIRTEQGLLLRSLQKKDSGNYLCHAVEHGFMQTLLKVTLEVIDTEHLEELLHKDDDGDGSKIKEMSSSMTPSQKVWYRDFMQLINHPNLNTMDEFCEQVWKRDAAQAAQRPGHSQGSSNKWKHMQESKKGANRATHEFERAPR",binds
2,"Sema3A (21–770) K497E (ligand, mouse, UniProt O08665 21-770, looked up, mouse Sema3A residues 21–770 with K497E; internal furin sites mutated; without A106K; also called Sema3A-K497E; Seme3A-K497E; source: Expi293F, purified from medium (Ni-NTA, Superose 6)) NYANGKNNVPRLKLSYKEMLESNNVITFNGLANSSSYHTFLLDEERSRLYVGAKDHIFSFNLVNIKDFQKIVWPVSYTRRDECKWAGKDILKECANFIKVLEAYNQTHLYACGTGAFHPICTYIEVGHHPEDNIFKLQDSHFENGRGKSPYDPKLLTASLLIDGELYSGTAADFMGRDFAIFRTLGHHHPIRTEQHDSRWLNDPRFISAHLIPESDNPEDDKVYFFFRENAIDGEHSGKATHARIGQICKNDFGGHRSLVNKWTTFLKARLICSVPGPNGIDTHFDELQDVFLMNSKDPKNPIVYGVFTTSSNIFKGSAVCMYSMSDVRRVFLGPYAHRDGPNYQWVPYQGRVPYPRPGTCPSKTFGGFDSTKDLPDDVITFARSHPAMYNPVFPINNRPIMIKTDVNYQFTQIVVDRVDAEDGQYDVMFIGTDVGTVLKVVSVPKETWHDLEEILLEEMTVFREPTTISAMELSTEQQQLYIGSTAGVAQLPLHRCDIYGKACAECCLARDPYCAWDGSSCSRYFPTAKARTRAQDIRNGDPLTHCSDLQHHDNHHGPSLEERIIYGVENSSTFLECSPKSQRALVYWQFQRRNEDRKEEIRMGDHIIRTEQGLLLRSLQKKDSGNYLCHAVEHGFMQTLLKVTLEVIDTEHLEELLHKDDDGDGSKIKEMSSSMTPSQKVWYRDFMQLINHPNLNTMDEFCEQVWKRDAAQAAQRPGHSQGSSNKWKHMQESKKGANRATHEFERAPR",binds
3,"Nrp1-a1a2b1b2 A252E (receptor, mouse, UniProt P97333 22-588, looked up, mouse Neuropilin 1 residues 22–588 (a1a2b1b2) with A252E; also called Nrp1-A252E; A252E mutant; source: Expi293F, purified from medium (Ni-NTA, Superose 6)) FRSDKCGGTIKIENPGYLTSPGYPHSYHPSEKCEWLIQAPEPYQRIMINFNPHFDLEDRDCKYDYVEVIDGENEGGRLWGKFCGKIAPSPVVSSGPFLFIKFVSDYETHGAGFSIRYEIFKRGPECSQNYTAPTGVIKSPGFPEKYPNSLECTYIIFAPKMSEIILEFESFDLEQDSNPPGGMFCRYDRLEIWDGFPEVGPHIGRYCGQKTPGRIRSSSGVLSMVFYTDSEIAKEGFSANYSVLQSSISEDFKCMEALGMESGEIHSDQITASSQYGTNWSVERSRLNYPENGWTPGEDSYKEWIQVDLGLLRFVTAVGTQGAISKETKKKYYVKTYRVDISSNGEDWISLKEGNKAIIFQGNTNPTDVVLGVFSKPLITRFVRIKPVSWETGISMRFEVYGCKITDYPCSGMLGMVSGLISDSQITASNQADRNWMPENIRLVTSRTGWALPPSPHPYTNEWLQVDLGDEKIVRGVIIQGGKHRENKVFMRKFKIAYSNNGSDWKTIMDDSKRKAKSFEGNNNYDTPELRTFSPLSTRFIRIYPERATHSGLGLRMELLGCEVEAP",binds
